Measured values from paper PMC11499264, “RNA m5C oxidation by TET2 regulates chromatin state and leukaemogenesis”.

Biological target: T1, MBD6 MBD domain-MBP-His (Homo sapiens, UniProt Q96DN6 1-100)
T1 sequence: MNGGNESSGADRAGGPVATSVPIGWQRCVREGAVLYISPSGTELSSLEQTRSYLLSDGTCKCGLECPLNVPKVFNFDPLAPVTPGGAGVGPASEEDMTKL
Test: EMSA; 0-100 uM protein; preferred over C and hm5C probes; 100 nM FAM probe, 20 mM HEPES pH 7.5, 40 mM KCl, 10 mM MgCl2, 0.1% Triton X-100, 10% glycerol, 1x RNaseOUT, on ice 30 min; 10% TBE gel, 0.5x TBE, 4 C
Settings: protein: recombinant; tags: C-terminal MBP-6xHis; label: 5' 6-FAM; single strand

B1: p1-m5C (ss) (ssDNA)
DNA: TATGACCTGCGGTATGACCTGCGGTATGACCTGCGG
modifications: 5-methyl-dC at positions 7, 19, 31
B1: binds.
